The Immune Epitope Database (IEDB)

Assays:
Experiment in all cases: IEDB peptide-MHC binding, purified MHC/competitive/radioactivity; filed as Kd, often an IC50 or EC50 that approximates it; ≥ and ≤ were set here for values at or beyond the usual limits of such assays
HLA-A*33:01 = biological target: HLA-A*33:01
HLA-A*03:01 = biological target: HLA-A*03:01
HLA-A*31:01 = biological target: HLA-A*31:01
HLA-A*68:01 = biological target: HLA-A*68:01
HLA-A*11:01 = biological target: HLA-A*11:01
[1] = source organism: Vaccinia virus WR
[2] = source organism: Lymphocytic choriomeningitis virus (strain Armstrong)
[3] = source organism: Dengue virus 2 Jamaica/1409/1983
[4] = source organism: SARS coronavirus Tor2
[5] = source organism: Lassa virus Josiah
[6] = source organism: Dengue virus 1 Brazil/97-11/1997
[7] = source organism: Mammarenavirus lassaense
[8] = source organism: Mammarenavirus guanaritoense
[9] = source organism: Vaccinia virus Copenhagen
[10] = source organism: Mammarenavirus whitewaterense

Sequence | Kd (HLA-A*33:01; [1]) | Kd (HLA-A*03:01; [1]) | Kd (HLA-A*31:01; [1]) | Kd (HLA-A*68:01; [1]) | Kd (HLA-A*11:01; [1]) | further results
SIPISELSR | 9740 nM | ≥ 24600 nM | 3720 nM | 11.2 nM | 125 nM | –
EARIVDKFGK | ≥ 20500 nM | 7730 nM | 633 nM | 101 nM | 2570 nM | –
KVILSEISFH | – | – | – | – | – | Kd (HLA-A*33:01; [2]): 16400 nM; Kd (HLA-A*03:01; [2]): 1370 nM; Kd (HLA-A*31:01; [2]): 2070 nM; Kd (HLA-A*68:01; [2]): 12700 nM; Kd (HLA-A*11:01; [2]): 812 nM
MALFLEEMLR | – | – | – | – | – | Kd (HLA-A*33:01; [3]): 27.2 nM; Kd (HLA-A*31:01; [3]): 19.6 nM; Kd (HLA-A*68:01; [3]): 11.8 nM
VAFELWAKR | – | – | – | – | – | Kd (HLA-A*33:01; [4]): 52 nM; Kd (HLA-A*03:01; [4]): 9440 nM; Kd (HLA-A*31:01; [4]): 76.9 nM; Kd (HLA-A*68:01; [4]): 23.4 nM; Kd (HLA-A*11:01; [4]): 3270 nM
CLLAISAVY | 8530 nM | 987 nM | 368 nM | 160 nM | 5040 nM | –
MLQKEYMER | – | – | – | – | – | Kd (HLA-A*33:01; [5]): 193 nM; Kd (HLA-A*03:01; [5]): 11000 nM; Kd (HLA-A*31:01; [5]): 100 nM; Kd (HLA-A*68:01; [5]): 33.3 nM; Kd (HLA-A*11:01; [5]): 1360 nM
QFKQDAKYSH | – | – | – | – | – | Kd (HLA-A*33:01; [5]): 10600 nM; Kd (HLA-A*03:01; [5]): ≥ 70000 nM; Kd (HLA-A*31:01; [5]): 18200 nM; Kd (HLA-A*68:01; [5]): ≥ 70100 nM; Kd (HLA-A*11:01; [5]): ≥ 69700 nM
DWLEKHGAER | – | – | – | – | – | Kd (HLA-A*33:01; [6]): 127 nM
SLFKNVRLLK | 2210 nM | 5.13 nM | 118 nM | 335 nM | 13.2 nM | –
ETKGVERLK | – | – | – | – | – | Kd (HLA-A*68:01; source organism: Dengue virus 3 Martinique/1243/1999): 33.3 nM
TCQGSEDIK | – | – | – | – | – | Kd (HLA-A*33:01; [7]): ≥ 77700 nM; Kd (HLA-A*03:01; [7]): ≥ 78000 nM; Kd (HLA-A*31:01; [7]): ≥ 61300 nM; Kd (HLA-A*68:01; [7]): ≥ 30000 nM; Kd (HLA-A*11:01; [7]): 15100 nM
MSYSMCTGK | – | – | – | – | – | Kd (HLA-A*03:01; [3]): 4.21 nM; Kd (HLA-A*68:01; [3]): 81.8 nM; Kd (HLA-A*11:01; [3]): 34.2 nM
KAPNVISSK | ≥ 22600 nM | 1.89 nM | 175 nM | 155 nM | 7.02 nM | –
NITLKIIETY | ≥ 20700 nM | ≥ 70100 nM | 1210 nM | 444 nM | 414 nM | –
VADLSARNK | 11700 nM | 214 nM | 3030 nM | 1120 nM | 153 nM | –
IVPEFAKQY | ≥ 42900 nM | ≥ 28200 nM | ≥ 21300 nM | 9120 nM | 11800 nM | –
TNFESFTVK | – | – | – | – | – | Kd (HLA-A*33:01; [8]): ≥ 77700 nM; Kd (HLA-A*03:01; [8]): 365 nM; Kd (HLA-A*31:01; [8]): 270 nM; Kd (HLA-A*68:01; [8]): 24.3 nM; Kd (HLA-A*11:01; [8]): 1440 nM
VLFVKKMLPK | 13500 nM | 7.21 nM | 1730 nM | 2350 nM | 12 nM | –

Sequence | Kd (HLA-A*33:01; [1]) | Kd (HLA-A*03:01; [1]) | Kd (HLA-A*31:01; [1]) | Kd (HLA-A*68:01; [1]) | Kd (HLA-A*11:01; [1]) | further results
IVTDLENRLK | ≥ 26700 nM | 25.4 nM | 548 nM | 310 nM | 309 nM | –
TLFIDRGSIK | – | – | – | – | – | Kd (HLA-A*33:01; [9]): 4650 nM; Kd (HLA-A*03:01; [9]): 12.4 nM; Kd (HLA-A*31:01; [9]): 8010 nM; Kd (HLA-A*68:01; [9]): 40.9 nM; Kd (HLA-A*11:01; [9]): 32.4 nM
FTSTNDKIK | ≥ 77700 nM | 1190 nM | 15200 nM | 113 nM | 58.8 nM | –
WVLAYMLFTK | – | – | – | – | – | Kd (HLA-A*33:01; [4]): 3950 nM; Kd (HLA-A*03:01; [4]): 24 nM; Kd (HLA-A*31:01; [4]): 1260 nM; Kd (HLA-A*68:01; [4]): 104 nM; Kd (HLA-A*11:01; [4]): 32.7 nM
IVTVTTKDY | 18400 nM | 1930 nM | 8980 nM | 1690 nM | ≥ 32600 nM | –
EACYIYKSGK | 11100 nM | 1080 nM | 6450 nM | 31.8 nM | 1010 nM | –
QLMYALEPR | – | – | – | – | – | Kd (HLA-A*33:01; [9]): 17300 nM; Kd (HLA-A*03:01; [9]): 15200 nM; Kd (HLA-A*31:01; [9]): 12800 nM; Kd (HLA-A*68:01; [9]): 2950 nM; Kd (HLA-A*11:01; [9]): 2460 nM
ITPTIEDDK | ≥ 77700 nM | ≥ 78000 nM | ≥ 77900 nM | 528 nM | 6560 nM | –
AVEDEEFWK | – | – | – | – | – | Kd (HLA-A*11:01; source organism: Dengue virus 3 Sri Lanka/1266/2000): 939 nM
ITDNGPMPY | 1600 nM | 5020 nM | 1200 nM | 2470 nM | 7.31 nM | –
MGANFRADR | – | – | – | – | – | Kd (HLA-A*68:01; [6]): 17 nM
DSCNANGCEH | – | – | – | – | – | Kd (HLA-A*33:01; [7]): ≥ 70000 nM; Kd (HLA-A*03:01; [7]): ≥ 70000 nM; Kd (HLA-A*31:01; [7]): ≥ 70000 nM; Kd (HLA-A*68:01; [7]): ≥ 70100 nM; Kd (HLA-A*11:01; [7]): ≥ 69700 nM
ISIISIRPR | 701 nM | ≥ 24100 nM | 3.69 nM | 43.4 nM | 263 nM | –
FISDNKKEY | ≥ 77700 nM | ≥ 78000 nM | ≥ 77900 nM | 7070 nM | ≥ 77900 nM | –
AVVCYNSNY | – | – | – | – | – | Kd (HLA-A*33:01; [4]): ≥ 77700 nM; Kd (HLA-A*03:01; [4]): 5400 nM; Kd (HLA-A*31:01; [4]): 14200 nM; Kd (HLA-A*68:01; [4]): 10100 nM; Kd (HLA-A*11:01; [4]): 698 nM
AIEKDRLDK | ≥ 77700 nM | ≥ 78000 nM | ≥ 77900 nM | ≥ 77700 nM | 1120 nM | –
NLFSKNILKY | ≥ 70000 nM | 656 nM | ≥ 70000 nM | 8770 nM | 16300 nM | –
RNPYENVLYK | – | – | – | – | – | Kd (HLA-A*33:01; [10]): ≥ 70000 nM; Kd (HLA-A*03:01; [10]): 2310 nM; Kd (HLA-A*31:01; [10]): ≥ 28800 nM; Kd (HLA-A*68:01; [10]): 3490 nM; Kd (HLA-A*11:01; [10]): 1500 nM
